Patent US20260226152A1 (GlaxoSmithKline, published 2026)
Read-outs that look alike come from different tables or passages of the source.

How the values were obtained:
[1] = biological target: T1, Human IL-18 (human, UniProt Q14116 37-193); assay: cell-based or functional assay
T1 sequence: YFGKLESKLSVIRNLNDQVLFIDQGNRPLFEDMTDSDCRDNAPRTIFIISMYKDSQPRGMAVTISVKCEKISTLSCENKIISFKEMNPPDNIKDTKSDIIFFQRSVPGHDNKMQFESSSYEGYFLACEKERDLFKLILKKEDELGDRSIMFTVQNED

[2] = biological target: T1, Human IL-18; assay: cell-based or functional assay; remark: listed apart in the source
[3] = biological target: T2, Human IL-23 (human, UniProt Q9NPF7 20-189; P29460 23-328); assay: cell-based or functional assay
T2 sequence 1: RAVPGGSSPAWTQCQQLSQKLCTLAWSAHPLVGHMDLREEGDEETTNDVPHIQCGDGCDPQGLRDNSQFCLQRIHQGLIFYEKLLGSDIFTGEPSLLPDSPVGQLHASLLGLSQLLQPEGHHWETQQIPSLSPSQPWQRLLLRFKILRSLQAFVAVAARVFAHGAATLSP
T2 sequence 2: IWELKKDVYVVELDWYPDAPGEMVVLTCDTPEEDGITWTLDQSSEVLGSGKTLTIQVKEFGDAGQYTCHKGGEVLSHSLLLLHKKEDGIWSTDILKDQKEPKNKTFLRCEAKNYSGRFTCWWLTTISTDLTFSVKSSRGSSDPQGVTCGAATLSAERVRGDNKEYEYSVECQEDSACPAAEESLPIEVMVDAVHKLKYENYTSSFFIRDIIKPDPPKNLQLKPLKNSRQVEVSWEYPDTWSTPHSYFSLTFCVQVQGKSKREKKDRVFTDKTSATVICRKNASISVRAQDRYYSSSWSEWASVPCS

[4] = biological target: T2, Human IL-23; assay: cell-based or functional assay; remark: listed apart in the source
[5] = biological target: T1, Human IL-18; assay: SPR (Biacore), antibody captured on Protein A/G, cytokine as analyte, 25 C, 1:1 fit, n=1
Description: (§1) A heterodimeric bsAb, alongside anti-IL-18 and anti-IL-23 common light chain control bispecific antibodies, were assessed for binding to human and cyno IL-18 and IL-23, using the Biacore 8K and T200 (Cytiva) surface plasmon resonance (SPR) instruments. All reagents were generated recombinantly in-house with the exception of Rhesus monkey IL-18 which was purchased from R&D systems (Cat #2548-RM-025/CF). Rhesus and cynomolgus monkey amino acid sequences are identical. Therefore, the protein will be referred to as cynomolgus monkey IL-18.
(§2) Heterodimeric bsAb, anti-IL-18 and anti-IL-23 common light chain bispecific control molecules were assessed for binding to recombinant human and cynomolgus monkey IL-18 and IL-23 using the Biacore 8K and T200 (Cytiva) SPR instruments. The antibodies were captured onto Protein A/G, which was immobilised onto flow cell 2 of 8 channels (Biacore 8K) or flow cells 2, 3 and 4 (Biacore T200) of a CM5 series S sensor chip by primary amine coupling. The IL-18 or IL-23 analytes were passed over the captured antibodies at varying concentrations between 0.04-25 nM. The association phase was for 240 seconds at 30 μl/min, followed by a dissociation step of up to 1200 seconds. A 0 nM (i.e., buffer alone) injection was used to double reference the binding curves. Regeneration of the chip surface between cycles was carried out using 50 mM NaOH. The assay was run at 25° C. in HBS-EP⁺ buffer. Biacore 8K control software version 3.0 was used to run the experiment. Data was analysed using Biacore 8K Insight evaluation software version 3.0. Biacore T200 control software version 1.0 was used to run the experiment. Data was analysed using Biacore T200 evaluation software version 2.0. Affinities and kinetics were determined using the 1:1 kinetic fit inherent to the software where possible. All affinity values generated using both instruments were combined to determine geometric mean values.

[6] = biological target: T2, Human IL-23; assay: as above
Description: as §1, §2

[7] = biological target: T1, Human IL-18; assay: cell-based or functional assay; remark: listed apart in the source
[8] = biological target: T3, Cynomolgus monkey IL-18 (Rhesus monkey (identical to cynomolgus …, UniProt Q9BGI5 37-193)); assay: cell-based or functional assay
T3 sequence: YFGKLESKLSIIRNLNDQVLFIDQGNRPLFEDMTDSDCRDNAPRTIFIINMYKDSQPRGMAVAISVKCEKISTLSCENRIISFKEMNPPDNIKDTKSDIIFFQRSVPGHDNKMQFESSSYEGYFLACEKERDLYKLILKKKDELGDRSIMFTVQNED

Binder | IC50 (pM, Mean), neutralisation of human IL-18-induced IFNγ secretion by KG-1 cells [1] | pIC50 (GeoMean), neutralisation of human IL-18-induced IFNγ secretion by KG-1 cells [1] | IC50 Heterodimeric bsAbs (% of Parent IL-18 control 3), LPS + IL12-induced IFN-γ in human whole blood [2] | IC50 Heterodimeric bsAbs (nM), inhibition of LPS + IL12-induced IFN-γ in human whole blood [2] | IC50 Heterodimeric bsAbs (% of Parent IL-23 control 2), IL-23-induced pSTAT3 in T cells of human whole blood [3] | IC50 Heterodimeric bsAbs (pM), inhibition of IL-23-induced pSTAT3 in CD3+CD161+ T cells of human whole blood [3] | IC50 Heterodimeric bsAb (% of Parent IL-23 control 2), IL-23-induced mouse IL-17A in mouse splenocytes [4] | IC50 Heterodimeric bsAb (pM), inhibition of human IL-23-induced mouse IL-17A secretion in mouse splenocytes [4] | Kd [5] | Kd [6] | IC50 (pM, Mean), neutralisation of human IL-18-induced IFNγ secretion by KG-1 cells [7] | pIC50 (GeoMean), neutralisation of human IL-18-induced IFNγ secretion by KG-1 cells [7] | IC50 (pM, Mean), neutralisation of cynomolgus IL-18-induced IFNγ secretion by KG-1 cells [8] | pIC50 (GeoMean), neutralisation of cynomolgus IL-18-induced IFNγ secretion by KG-1 cells [8]
Heterodimeric bsAb 1 (bispecific antibody, human IgG1, kappa, Het-mAb format: anti-IL-18 mAb on ZA and anti-IL-23 mAb (risankizumab) on ZB, with Fc heterodimerisation and silencing mutations; Expressed transiently in HEK293 6E cells) heavy 1: QVQLVQSGAEVKKPGASVKVSCKVSGEISTGYYFHWVRQAPGKGLEWMGRIDPEDDSTKYAERFKDRVTMTEDTSTDTAYMELSSLRSEDTAVYYCTTWRIYRDSSGRPFYVMDAWGQGTLVTVSSASTKGPSVFPLAPSSKSTSGGTAALGCEVTDYFPEPVTVSWNSGALTSGVHTFPAVLESSGLYSLSSVVTVPSSSLGTQTYICNVNHKPSNTKVDKKVEPKSCDKTHTCPPCPAPELAGAPSVFLFPPKPKDTLMISRTPEVTCVVVDVSHEDPEVKFNWYVDGVEVHNAKTKPREEQYNSTYRVVSVLTVLHQDWLNGKEYKCKVSNKALPAPIEKTISKAKGQPREPQVYVYPPSRDELTKNQVSLTCLVKGFYPSDIAVEWESNGQPENNYKTTPPVLDSDGSFALVSKLTVDKSRWQQGNVFSCSVMHEALHNHYTQKSLSLSPGK light 1: DIQMTQSPSSVSASVGDRVTITCLASEDIYTYLTWYQQKPGKAPKLLIYGANKLQDGVPSRFSGSGSGTDYTLTISSLQPEDFATYYCLQGSKFPLTFGQGTKLEIKRTVAAPSVFIFPPSDERLKSGTASVVCLLNNFYPREAKVQWKVDNALQSGNSQESVTEQDSKDSTYSLSSRLTLSKADYEKHKVYACEVTHQGLSSPVTKSFNRGEC heavy 2: QVQLVQSGAEVKKPGSSVKVSCKASGYTFTDQTIHWMRQAPGQGLEWIGYIYPRDDSPKYNENFKGKVTITADKSTSTAYMELSSLRSEDTAVYYCAIPDRSGYAWFIYWGQGTLVTVSSASTKGPSVFPLAPSSKSTSGGTAALGCRVKDYFPEPVTVSWNSGALTSGVHTFPAVLQSSGLYSLSSVVTVPSSSLGTQTYICNVNHKPSNTKVDKKVEPKSCDKTHTCPPCPAPELAGAPSVFLFPPKPKDTLMISRTPEVTCVVVDVSHEDPEVKFNWYVDGVEVHNAKTKPREEQYNSTYRVVSVLTVLHQDWLNGKEYKCKVSNKALPAPIEKTISKAKGQPREPQVYVLPPSRDELTKNQVSLLCLVKGFYPSDIAVEWESNGQPENNYLTWPPVLDSDGSFFLYSKLTVDKSRWQQGNVFSCSVMHEALHNHYTQKSLSLSPGK light 2: DIQMTQSPSSLSASVGDRVTITCKASRDVAIAVAWYQQKPGKVPKLLIYWASTRHTGVPSRFSGSGSRTDFTLTISSLQPEDVADYFCHQYSSYPFTFGSGTKLEIKRTVAAPSVFIFPPSDEELKSGTASVECLLNNFYPREAKVQWKVDNALQSGNSQESVTEQDSKDSTYSLSSTLTLSKADYEKHKVYACEVTHQGLSSPVTKSFNRGEC | 133 pM | 9.88 | 191 % of Parent | 16 nM | 218 % of Parent | 615 pM | 254 % of Parent | 153 pM | < 10 pM | 374 pM | – | – | – | –
Heterodimeric bsAb 2 (bispecific antibody, human IgG1, kappa, Het-mAb format: anti-IL-23 mAb (risankizumab) on ZA and anti-IL-18 mAb on ZB, with Fc heterodimerisation and silencing mutations) heavy 1: QVQLVQSGAEVKKPGSSVKVSCKASGYTFTDQTIHWMRQAPGQGLEWIGYIYPRDDSPKYNENFKGKVTITADKSTSTAYMELSSLRSEDTAVYYCAIPDRSGYAWFIYWGQGTLVTVSSASTKGPSVFPLAPSSKSTSGGTAALGCRVKDYFPEPVTVSWNSGALTSGVHTFPAVLQSSGLYSLSSVVTVPSSSLGTQTYICNVNHKPSNTKVDKKVEPKSCDKTHTCPPCP light 1: DIQMTQSPSSLSASVGDRVTITCKASRDVAIAVAWYQQKPGKVPKLLIYWASTRHTGVPSRFSGSGSRTDFTLTISSLQPEDVADYFCHQYSSYPFTFGSGTKLEIKRTVAAPSVFIFPPSDEELKSGTASVECLLNNFYPREAKVQWKVDNALQSGNSQESVTEQDSKDSTYSLSSTLTLSKADYEKHKVYACEVTHQGLSSPVTKSFNRGEC heavy 2: QVQLVQSGAEVKKPGASVKVSCKVSGEISTGYYFHWVRQAPGKGLEWMGRIDPEDDSTKYAERFKDRVTMTEDTSTDTAYMELSSLRSEDTAVYYCTTWRIYRDSSGRPFYVMDAWGQGTLVTVSSASTKGPSVFPLAPSSKSTSGGTAALGCEVTDYFPEPVTVSWNSGALTSGVHTFPAVLESSGLYSLSSVVTVPSSSLGTQTYICNVNHKPSNTKVDKKVEPKSCDKTHTCPPCPAPELAGAPSVFLFPPKPKDTLMISRTPEVTCVVVDVSHEDPEVKFNWYVDGVEVHNAKTKPREEQYNSTYRVVSVLTVLHQDWLNGKEYKCKVSNKALPAPIEKTISKAKGQPREPQVYVLPPSRDELTKNQVSLLCLVKGFYPSDIAVEWESNGQPENNYLTWPPVLDSDGSFFLYSKLTVDKSRWQQGNVFSCSVMHEALHNHYTQKSLSLSPGK light 2: DIQMTQSPSSVSASVGDRVTITCLASEDIYTYLTWYQQKPGKAPKLLIYGANKLQDGVPSRFSGSGSGTDYTLTISSLQPEDFATYYCLQGSKFPLTFGQGTKLEIKRTVAAPSVFIFPPSDERLKSGTASVVCLLNNFYPREAKVQWKVDNALQSGNSQESVTEQDSKDSTYSLSSRLTLSKADYEKHKVYACEVTHQGLSSPVTKSFNRGEC | 77.6 pM | 10.1 | 240 % of Parent | 18.2 nM | 249 % of Parent | 711 pM | 274 % of Parent | 147 pM | < 10 pM | 158 pM | – | – | – | –
IL-18 control 2 (antibody, V domains shown) VH: QVQLVQSGAEVKKPGASVKVSCKVSGEISTGYYFHWVRQAPGKGLEWMGRIDPEDDSTKYAERFKDRVTMTEDTSTDTAYMELSSLRSEDTAVYYCTTWRIYRDSSGRPFYVMDAWGQGTLVTVSS VL: DIQMTQSPSSVSASVGDRVTITCLASEDIYTYLTWYQQKPGKAPKLLIYGANKLQDGVPSRFSGSGSGTDYTLTISSLQPEDFATYYCLQGSKFPLTFGQGTKLEIK | 41 pM | 10.4 | – | – | – | – | – | – | – | – | 39.8 pM | 10.4 | 64.6 pM | 10.2
